From the supplement of paper PMC10567573

B1: TEKT4 (parent)
chain: LREKLLEAEQSLRNLEDIHMSLEK
B2: BTBD1 (parent)
chain: YGSIHGPTDYQVNIQIIEYEKKQT

Variants of: B1
Assay: protein stability index of a GFP-peptide fusion (GPS, HEK-293T) (PSI 1-6); higher = more stable
Conditions: c terminus: a fixed tail appended
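Note: lentivirally expressed fusions sorted by FACS into six bins by GFP to DsRed ratio, PSI derived from sequencing read proportions per bin multiplied by bin number.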

Row | Variant | protein stability index
1 | LRSKLLEAEQSLRNLEDIHMSLEK [E3S] | 2.47
2 | LRNKLLEAEQSLRNLEDIHMSLEK [E3N] | 2.27
3 | LRYKLLEAEQSLRNLEDIHMSLEK [E3Y] | 2.15
4 | LRKKLLEAEQSLRNLEDIHMSLEK [E3K] | 2.1
5 | LRCKLLEAEQSLRNLEDIHMSLEK [E3C] | 1.96
6 | LRDKLLEAEQSLRNLEDIHMSLEK [E3D] | 2.02
7 | LRMKLLEAEQSLRNLEDIHMSLEK [E3M] | 2.88
8 | LRVKLLEAEQSLRNLEDIHMSLEK [E3V] | 2.01
9 | LRRKLLEAEQSLRNLEDIHMSLEK [E3R] | 2.69
10 | LRLKLLEAEQSLRNLEDIHMSLEK [E3L] | 2.58
11 | LRWKLLEAEQSLRNLEDIHMSLEK [E3W] | 1.81
12 | LRHKLLEAEQSLRNLEDIHMSLEK [E3H] | 2.71
13 | LRGKLLEAEQSLRNLEDIHMSLEK [E3G] | 1.96
14 | LRFKLLEAEQSLRNLEDIHMSLEK [E3F] | 2.46
15 | LRPKLLEAEQSLRNLEDIHMSLEK [E3P] | 2.24
16 | LRAKLLEAEQSLRNLEDIHMSLEK [E3A] | 2.29
17 | LRTKLLEAEQSLRNLEDIHMSLEK [E3T] | 1.63
18 | LREKLLEASQSLRNLEDIHMSLEK [E9S] | 2.61
19 | LREKLLEALQSLRNLEDIHMSLEK [E9L] | 2.77
20 | LREKLLEAGQSLRNLEDIHMSLEK [E9G] | 2.89
21 | LREKLLEAKQSLRNLEDIHMSLEK [E9K] | 3.17
22 | LREKLLEAVQSLRNLEDIHMSLEK [E9V] | 2.05

Row | Variant | protein stability index
23 | LREKLLEAQQSLRNLEDIHMSLEK [E9Q] | 1.98
24 | LREKLLEATQSLRNLEDIHMSLEK [E9T] | 2.44
25 | LREKLLEANQSLRNLEDIHMSLEK [E9N] | 3.15
26 | LREKLLEAWQSLRNLEDIHMSLEK [E9W] | 2.06
27 | LREKLLEADQSLRNLEDIHMSLEK [E9D] | 3.4
28 | LREKLLEARQSLRNLEDIHMSLEK [E9R] | 3.25
29 | LREKLLEACQSLRNLEDIHMSLEK [E9C] | 1.85
30 | LREKLLEAIQSLRNLEDIHMSLEK [E9I] | 1.75
31 | LREKLLEAPQSLRNLEDIHMSLEK [E9P] | 3.52
32 | LREKLLEAFQSLRNLEDIHMSLEK [E9F] | 1.37
33 | LREKLLEAAQSLRNLEDIHMSLEK [E9A] | 2.38
34 | LREKLLEAYQSLRNLEDIHMSLEK [E9Y] | 2.06
35 | LREKLLEAHQSLRNLEDIHMSLEK [E9H] | 2.58
36 | LNEKLLEAEQSLRNLEDIHMSLEK [R2N] | 1.86
37 | LTEKLLEAEQSLRNLEDIHMSLEK [R2T] | 2.83
38 | LGEKLLEAEQSLRNLEDIHMSLEK [R2G] | 2.34
39 | LIEKLLEAEQSLRNLEDIHMSLEK [R2I] | 2.41
40 | LVEKLLEAEQSLRNLEDIHMSLEK [R2V] | 1.7
41 | LCEKLLEAEQSLRNLEDIHMSLEK [R2C] | 1.48
42 | LSEKLLEAEQSLRNLEDIHMSLEK [R2S] | 2.33
43 | LMEKLLEAEQSLRNLEDIHMSLEK [R2M] | 1.89
44 | LLEKLLEAEQSLRNLEDIHMSLEK [R2L] | 1.93

Row | Variant | protein stability index
45 | LHEKLLEAEQSLRNLEDIHMSLEK [R2H] | 2.02
46 | LFEKLLEAEQSLRNLEDIHMSLEK [R2F] | 1.16
47 | LPEKLLEAEQSLRNLEDIHMSLEK [R2P] | 3.11
48 | LYEKLLEAEQSLRNLEDIHMSLEK [R2Y] | 2.05
49 | LEEKLLEAEQSLRNLEDIHMSLEK [R2E] | 2.43
50 | LKEKLLEAEQSLRNLEDIHMSLEK [R2K] | 3.61
51 | LQEKLLEAEQSLRNLEDIHMSLEK [R2Q] | 1.9
52 | LDEKLLEAEQSLRNLEDIHMSLEK [R2D] | 2.72
53 | LREKLLEAEDSLRNLEDIHMSLEK [Q10D] | 1.92
54 | LREKLLEAERSLRNLEDIHMSLEK [Q10R] | 2.69
55 | LREKLLEAEISLRNLEDIHMSLEK [Q10I] | 1.34
56 | LREKLLEAEFSLRNLEDIHMSLEK [Q10F] | 2.89
57 | LREKLLEAEGSLRNLEDIHMSLEK [Q10G] | 2.71
58 | LREKLLEAECSLRNLEDIHMSLEK [Q10C] | 3.01
59 | LREKLLEAEPSLRNLEDIHMSLEK [Q10P] | 4.65
60 | LREKLLEAETSLRNLEDIHMSLEK [Q10T] | 2.77
61 | LREKLLEAEVSLRNLEDIHMSLEK [Q10V] | 2.08
62 | LREKLLEAESSLRNLEDIHMSLEK [Q10S] | 2.79
63 | LREKLLEAENSLRNLEDIHMSLEK [Q10N] | 2.76
64 | LREKLLEAEASLRNLEDIHMSLEK [Q10A] | 3.49
65 | LREKLLEAEKSLRNLEDIHMSLEK [Q10K] | 2.37
66 | LREKLLEAELSLRNLEDIHMSLEK [Q10L] | 3.22

Row | Variant | protein stability index
67 | LREKLLEAEHSLRNLEDIHMSLEK [Q10H] | 2.23
68 | LREKLLWAEQSLRNLEDIHMSLEK [E7W] | 1.75
69 | LREKLLIAEQSLRNLEDIHMSLEK [E7I] | 2.06
70 | LREKLLYAEQSLRNLEDIHMSLEK [E7Y] | 2.08
71 | LREKLLKAEQSLRNLEDIHMSLEK [E7K] | 2.51
72 | LREKLLMAEQSLRNLEDIHMSLEK [E7M] | 2.38
73 | LREKLLCAEQSLRNLEDIHMSLEK [E7C] | 2.17
74 | LREKLLGAEQSLRNLEDIHMSLEK [E7G] | 3.75
75 | LREKLLVAEQSLRNLEDIHMSLEK [E7V] | 2.56
76 | LREKLLDAEQSLRNLEDIHMSLEK [E7D] | 2.38
77 | LREKLLSAEQSLRNLEDIHMSLEK [E7S] | 2.42
78 | LREKLLPAEQSLRNLEDIHMSLEK [E7P] | 4.17
79 | LREKLLFAEQSLRNLEDIHMSLEK [E7F] | 2.5
80 | LREKLLHAEQSLRNLEDIHMSLEK [E7H] | 3.6
81 | LREKLLQAEQSLRNLEDIHMSLEK [E7Q] | 2.35
82 | LREKLLTAEQSLRNLEDIHMSLEK [E7T] | 2.93
83 | LREKLLAAEQSLRNLEDIHMSLEK [E7A] | 2.46
84 | LREKLLNAEQSLRNLEDIHMSLEK [E7N] | 2.39
85 | LREKLLLAEQSLRNLEDIHMSLEK [E7L] | 1.75

Variants of: B2
Assay: as above
Conditions: c terminus: a fixed tail appended

Row | Variant | protein stability index
86 | YGSIHGPTDYQVNIQIIEYEKKQW [T24W] | 2.23
87 | YGSIHGPTDYQVNIQIIEYEKKQQ [T24Q] | 3.18
88 | YGSIHGPTDYQVNIQIIEYEKKQY [T24Y] | 2.21
89 | YGSIHGPTDYQVNIQIIEYEKKQV [T24V] | 2.43
90 | YGSIHGPTDYQVNIQIIEYEKKQS [T24S] | 2.98
91 | YGSIHGPTDYQVNIQIIEYEKKQP [T24P] | 2.3
92 | YGSIHGPTDYQVNIQIIEYEKKQM [T24M] | 2.36
93 | YGSIHGPTDYQVNIQIIEYEKKQR [T24R] | 2.69
94 | YGSIHGPTDYQVNIQIIEYEKKQN [T24N] | 2.9
